The results in this text go back to patent US20130078188A1.

This experiment addresses thrombin (endogenous, in developing blood clots of mice) (mouse) (UniProt P19221). Kind of experiment: cell-based or functional assay.

Chain of hirudin (P01050 whole entry): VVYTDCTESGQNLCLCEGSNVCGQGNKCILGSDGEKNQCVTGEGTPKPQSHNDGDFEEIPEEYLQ

On to hirudin (from UniProt P01050 1-65), for which the inhibition of the Cy5/Cy7 ratio increase of … in tail clots of mice is greater than 90%.
